The results in this text go back to publication PMC4149788 (The Febs Journal, 2014).

The target of the experiment is GST-HAUSP (human, UniProt Q93009 1-1102). Kind of experiment: pull-down.
GST-HAUSP, sequence (Q93009 whole entry): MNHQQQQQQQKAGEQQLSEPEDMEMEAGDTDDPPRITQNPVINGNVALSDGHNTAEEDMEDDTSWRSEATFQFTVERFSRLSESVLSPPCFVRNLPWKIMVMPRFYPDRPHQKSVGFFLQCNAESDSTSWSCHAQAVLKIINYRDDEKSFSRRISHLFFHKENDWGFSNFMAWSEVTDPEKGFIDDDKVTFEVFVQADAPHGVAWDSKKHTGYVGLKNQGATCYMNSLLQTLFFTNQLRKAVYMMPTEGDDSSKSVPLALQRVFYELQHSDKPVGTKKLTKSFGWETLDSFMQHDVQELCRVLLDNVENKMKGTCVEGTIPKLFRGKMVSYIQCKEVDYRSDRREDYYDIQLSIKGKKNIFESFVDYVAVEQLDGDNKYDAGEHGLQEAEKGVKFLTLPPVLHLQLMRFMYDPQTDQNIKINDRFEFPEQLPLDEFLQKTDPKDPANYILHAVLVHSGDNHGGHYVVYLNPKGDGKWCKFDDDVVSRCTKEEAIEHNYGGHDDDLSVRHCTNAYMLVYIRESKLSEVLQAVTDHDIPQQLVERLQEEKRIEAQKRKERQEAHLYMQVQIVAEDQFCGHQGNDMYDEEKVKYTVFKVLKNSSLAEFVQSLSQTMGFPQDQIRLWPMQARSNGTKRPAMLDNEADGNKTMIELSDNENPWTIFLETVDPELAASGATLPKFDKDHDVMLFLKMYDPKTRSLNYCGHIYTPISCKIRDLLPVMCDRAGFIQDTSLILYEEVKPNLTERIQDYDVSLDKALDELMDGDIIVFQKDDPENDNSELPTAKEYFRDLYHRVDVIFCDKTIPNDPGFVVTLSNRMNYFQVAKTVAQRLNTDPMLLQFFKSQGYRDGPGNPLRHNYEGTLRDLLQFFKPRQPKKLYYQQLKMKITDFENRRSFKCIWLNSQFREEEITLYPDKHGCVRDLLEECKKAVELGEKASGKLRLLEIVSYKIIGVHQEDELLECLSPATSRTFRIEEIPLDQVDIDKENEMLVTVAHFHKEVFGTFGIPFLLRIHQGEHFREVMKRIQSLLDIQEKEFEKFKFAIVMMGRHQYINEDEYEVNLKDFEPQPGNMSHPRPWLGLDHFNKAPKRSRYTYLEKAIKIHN

B1: Myc/His-Rb (Rb in pcDNA3.1-Myc/His B(-)) (natural protein, human, UniProt P06400 1-928, looked up)
chain: MPPKTPRKTAATAAAAAAEPPAPPPPPPPEEDPEQDSGPEDLPLVRLEFEETEEPDFTALCQKLKIPDHVRERAWLTWEKVSSVDGVLGGYIQKKKELWGICIFIAAVDLDEMSFTFTELQKNIEISVHKFFNLLKEIDTSTKVDNAMSRLLKKYDVLFALFSKLERTCELIYLTQPSSSISTEINSALVLKVSWITFLLAKGEVLQMEDDLVISFQLMLCVLDYFIKLSPPMLLKEPYKTAVIPINGSPRTPRRGQNRSARIAKQLENDTRIIEVLCKEHECNIDEVKNVYFKNFIPFMNSLGLVTSNGLPEVENLSKRYEEIYLKNKDLDARLFLDHDKTLQTDSIDSFETQRTPRKSNLDEEVNVIPPHTPVRTVMNTIQQLMMILNSASDQPSENLISYFNNCTVNPKESILKRVKDIGYIFKEKFAKAVGQGCVEIGSQRYKLGVRLYYRVMESMLKSEEERLSIQNFSKLLNDNIFHMSLLACALEVVMATYSRSTSQNLDSGTDLSFPWILNVLNLKAFDFYKVIESFIKAEGNLTREMIKHLERCEHRIMESLAWLSDSPLFDLIKQSKDREGPTDHLESACPLNLPLQNNHTAADMYLSPVRSPKKKGSTTRVNSTANAETQATSAFQTQKPLKSTSLSLFYKKVYRLAYLRLNTLCERLLSEHPELEHIIWTLFQHTLQNEYELMRDRHLDQIMMCSMYGICKVKNIDLKFKIIVTAYKDLPHAVQETFKRVLIKEEEYDSIIVFYNSVFMQRLKTNILQYASTRPPTLSPIPHIPRSPYKFPSSPLRIPGGNIYISPLKSPYKISEGLPTPTKMTPRSRILVSIGESFGTSEKFQKINQMVCNSDRVLKRSAEGSNPPKPLKKLRFDIEGSDEADGSKHLPGESKFQQKLAEMTSTRTRMQKQKMNDSMDTSNKEEK
As for B1, the binding result is listed as “binds”.
